# Source: patent publication US9267116B2, “Amino acid dehydrogenase, and process for producing L-amino acid, 2-oxo acid or D-amino acid” (KANEKA CORPORATION, priority 2008, dated 2016)
# B1: purified amino acid dehydrogenase: amino acid dehydrogenase purified from Rhodococcus qingshengii strain KNK2108 (Example 1), SEQ ID NO:1, classified as phenylalanine dehydrogenase (protein, listed as Rhodococcus qingshengii)
# chain: MSIDDELRWDGELTVTRHDRETGTTFVIRIDSTRLGPASGGTRAAHYPSIGHALADAGKLAGAMTLKMAVSDLPMGGGKSVIALPAPRNQIDAATWSRILGIHAENIDKLEGNYWTGPDVNTNSSDMDQLSRTTRYVFGRSVDKGGAGSSAHATALGVFEAMKATARRRGLGTLDGRTVLVQGLGAVGGDVVRLAAQAGARLLVADTDPQRLEAASLAGHTVVPAGEVLRTPCDLFAPCAMGGIIDFAAAASIPTLAVAGAANNILTDAAAGEVLRDRGVLCAPDFVANAGGAFHLVGREVLGWNEDYVVERTRGIGRTLDEVYSLSEERGITTEAAALMLARARLSPASTAAAATSAAPAAAAASPA
# Assay: Properties of the purified amino acid dehydrogenase (specific activity, action temperature and pH), NADH decline at 340 nm
# Assay type: biochemical, Rhodococcus qingshengii strain KNK2108
# Conditions: 30° C., pH 9.0, phenylpyruvic acid substrate; 1 unit = 1 μmol NADH consumed in 1 minute
# Description: In the embodiments, the amino acid dehydrogenase activity of the polypeptide can be measured, for example, based on the rate of decline in the absorbance at a wavelength of 340 nm when 1.2 mL of 0.5 M NH3/NH4Cl buffer (pH 9.0), 0.2 mL of 0.1 M sodium carbonate buffer (pH 9.0) containing 3 mM NADH coenzyme, and 0.1 mL of an appropriately diluted enzyme solution are added to 1.5 mL of 0.1 M sodium carbonate buffer (pH 9.0) containing 10 mM phenylpyruvic acid as substrate and a reaction is run for 1 minute at 30° C. In the embodiments, the amino acid dehydrogenase activity was measured using this method unless indicated otherwise.
# The activity of the amino acid dehydrogenase was measured based on the rate of decline in the absorbance at a wavelength of 340 nm when 1.2 mL of 0.5 M NH3/NH4Cl buffer (pH 9.0), 0.2 mL of 0.1 M sodium carbonate buffer (pH 9.0) that contained 3 mM NADH coenzyme, and 0.1 mL of the appropriately diluted enzyme solution were added to 1.5 mL of 0.1 M sodium carbonate buffer (pH 9.0) that contained 10 mM phenylpyruvic acid substrate and a reaction was carried out for 1 minute at 30° C. 1 unit is defined here as the quantity of enzyme that consumed 1 μmol NADH in 1 minute. The protein was quantified by the Bradford method using BSA as the reference protein.
# The action temperature range and the optimal temperature were examined. […]
molecule,measurement,value
B1,specific activity,204 units/mg protein
